The values below come from patent publication US20190134153A1, “IMMUNOMODULATORY EFFECT OF INHALED KINASE INHIBITOR PEPTIDES IN LUNG” (MOERAE MATRIX, INC., priority 2017, published 2019).

What all share (assay): Kinase Profiling Assay
What all share (type): biochemical
What all share (conditions): 100 μM

One assay has as its target Fer(h) (Homo sapiens, UniProt P16591).
The target in a further assay is T1, CaMKIV(h) (Homo sapiens, UniProt Q16566).
T1 sequence (Q16566 1-473): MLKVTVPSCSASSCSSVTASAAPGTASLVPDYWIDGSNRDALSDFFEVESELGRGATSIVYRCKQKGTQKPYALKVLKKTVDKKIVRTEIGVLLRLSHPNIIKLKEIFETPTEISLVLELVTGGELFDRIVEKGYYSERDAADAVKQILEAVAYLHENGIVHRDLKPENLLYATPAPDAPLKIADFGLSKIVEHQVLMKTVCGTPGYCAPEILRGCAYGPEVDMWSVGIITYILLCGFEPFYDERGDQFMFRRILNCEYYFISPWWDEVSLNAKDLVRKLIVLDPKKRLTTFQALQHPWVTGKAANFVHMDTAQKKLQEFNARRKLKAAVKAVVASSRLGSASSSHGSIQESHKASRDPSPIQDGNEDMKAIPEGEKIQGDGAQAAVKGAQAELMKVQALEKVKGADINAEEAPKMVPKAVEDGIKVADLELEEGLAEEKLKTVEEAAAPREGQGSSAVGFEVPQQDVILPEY

The target of the next assay is T2, IKKβ(h) (Homo sapiens, UniProt O14920).
T2 sequence (O14920 1-756): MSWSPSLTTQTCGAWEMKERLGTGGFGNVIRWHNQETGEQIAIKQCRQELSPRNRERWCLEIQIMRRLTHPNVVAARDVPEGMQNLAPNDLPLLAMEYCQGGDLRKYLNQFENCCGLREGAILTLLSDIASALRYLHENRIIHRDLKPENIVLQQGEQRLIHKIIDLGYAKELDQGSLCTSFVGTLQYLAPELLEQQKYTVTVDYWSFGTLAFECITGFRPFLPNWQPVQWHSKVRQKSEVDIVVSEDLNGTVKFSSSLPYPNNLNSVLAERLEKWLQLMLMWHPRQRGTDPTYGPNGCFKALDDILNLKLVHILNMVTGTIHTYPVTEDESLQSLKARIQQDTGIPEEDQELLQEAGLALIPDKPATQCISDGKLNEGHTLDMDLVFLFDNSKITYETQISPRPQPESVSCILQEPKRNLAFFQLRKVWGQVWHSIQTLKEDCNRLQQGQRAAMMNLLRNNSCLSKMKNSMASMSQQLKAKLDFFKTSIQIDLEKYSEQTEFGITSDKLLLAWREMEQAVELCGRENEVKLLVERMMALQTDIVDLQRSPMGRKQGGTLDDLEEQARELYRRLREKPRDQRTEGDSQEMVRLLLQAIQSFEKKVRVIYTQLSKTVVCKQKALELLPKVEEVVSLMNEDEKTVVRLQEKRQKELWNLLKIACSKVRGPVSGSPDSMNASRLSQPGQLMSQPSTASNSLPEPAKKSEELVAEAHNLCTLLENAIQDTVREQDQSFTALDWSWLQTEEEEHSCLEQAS

The target of the next assay is T3, EphB3(h) (Homo sapiens, UniProt P54753).
T3 sequence (P54753 34-998): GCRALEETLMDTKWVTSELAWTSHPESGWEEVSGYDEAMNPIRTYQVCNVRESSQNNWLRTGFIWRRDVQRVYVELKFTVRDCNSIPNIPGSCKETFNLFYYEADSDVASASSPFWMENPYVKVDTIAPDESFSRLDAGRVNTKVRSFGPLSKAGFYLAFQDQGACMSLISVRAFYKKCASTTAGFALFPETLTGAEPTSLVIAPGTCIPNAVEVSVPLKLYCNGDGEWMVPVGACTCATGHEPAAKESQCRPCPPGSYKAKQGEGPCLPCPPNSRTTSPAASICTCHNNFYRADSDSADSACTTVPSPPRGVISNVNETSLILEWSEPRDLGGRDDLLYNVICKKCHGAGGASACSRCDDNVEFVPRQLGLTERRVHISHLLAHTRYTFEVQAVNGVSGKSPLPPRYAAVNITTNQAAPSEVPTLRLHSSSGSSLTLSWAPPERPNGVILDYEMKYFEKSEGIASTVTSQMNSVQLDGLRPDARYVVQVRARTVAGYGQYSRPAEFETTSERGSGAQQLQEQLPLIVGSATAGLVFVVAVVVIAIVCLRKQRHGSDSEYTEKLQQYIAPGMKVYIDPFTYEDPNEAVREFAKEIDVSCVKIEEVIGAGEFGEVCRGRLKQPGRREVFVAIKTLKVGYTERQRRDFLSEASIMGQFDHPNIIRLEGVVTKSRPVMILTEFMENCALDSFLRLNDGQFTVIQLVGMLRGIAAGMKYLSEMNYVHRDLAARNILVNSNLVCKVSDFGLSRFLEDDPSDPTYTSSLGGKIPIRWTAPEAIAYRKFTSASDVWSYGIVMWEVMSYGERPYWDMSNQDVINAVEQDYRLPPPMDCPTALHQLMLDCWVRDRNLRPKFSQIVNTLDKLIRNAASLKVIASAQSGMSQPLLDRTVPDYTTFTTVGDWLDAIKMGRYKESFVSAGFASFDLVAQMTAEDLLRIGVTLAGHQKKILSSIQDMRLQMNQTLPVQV

Another assay concerns the target EGFR(T790M, L858R)(h) (Homo sapiens, UniProt P00533, L858R/T790M).

Fer(h), sequence (P16591 whole entry): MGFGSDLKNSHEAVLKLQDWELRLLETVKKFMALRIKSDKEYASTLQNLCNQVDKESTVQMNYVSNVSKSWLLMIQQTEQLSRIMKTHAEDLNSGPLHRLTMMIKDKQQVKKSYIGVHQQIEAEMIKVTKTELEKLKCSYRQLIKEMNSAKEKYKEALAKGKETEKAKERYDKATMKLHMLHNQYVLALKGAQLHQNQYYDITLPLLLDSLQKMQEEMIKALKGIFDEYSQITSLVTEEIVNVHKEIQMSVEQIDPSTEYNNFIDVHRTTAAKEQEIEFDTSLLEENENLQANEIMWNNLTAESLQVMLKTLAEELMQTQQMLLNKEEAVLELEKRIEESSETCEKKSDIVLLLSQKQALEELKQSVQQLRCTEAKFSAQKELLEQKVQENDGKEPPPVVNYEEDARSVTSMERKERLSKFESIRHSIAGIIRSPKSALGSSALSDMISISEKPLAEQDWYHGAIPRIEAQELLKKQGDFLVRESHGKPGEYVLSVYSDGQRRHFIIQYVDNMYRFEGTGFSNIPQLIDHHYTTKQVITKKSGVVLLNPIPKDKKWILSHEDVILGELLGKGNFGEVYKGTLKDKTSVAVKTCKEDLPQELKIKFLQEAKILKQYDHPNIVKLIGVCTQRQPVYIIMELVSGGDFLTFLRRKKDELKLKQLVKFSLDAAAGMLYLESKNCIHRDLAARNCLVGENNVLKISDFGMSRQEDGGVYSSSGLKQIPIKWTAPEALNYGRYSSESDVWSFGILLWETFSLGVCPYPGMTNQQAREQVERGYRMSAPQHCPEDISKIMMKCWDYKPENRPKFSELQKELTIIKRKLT

For the sequence HRRIKAWLKKIKALARQLGVAA [MMI-0500], the “% activity” value in the assay with Fer(h) is 196%; in the assay with CaMKIV(h) it was −1%; in the assay with IKKβ(h), 71%; in the assay with EphB3(h), 79%; with EGFR(T790M, L858R)(h), 53%.

In the case of YARAAARQARAKALNRQLGVA [MMI-0200], the “% activity” value in the assay with Fer(h) was 101%; in the assay with CaMKIV(h), 71%; with EphB3(h), 128%; with EGFR(T790M, L858R)(h), 108%.

Regarding KAFAKLAARLYRKALARQLGVAA [MMI-0400], the “% activity” value in the assay with Fer(h) is 108%; with CaMKIV(h) it was 18%; with IKKβ(h), 84%; with EphB3(h), 47%; in the assay with EGFR(T790M, L858R)(h), 78%.

On to FAKLAARLYRKALARQLGVAA [MMI-0300], for which the “% activity” value in the assay with Fer(h) came to 130%; in the assay with CaMKIV(h) it was 17%; in the assay with IKKβ(h), 84%; with EphB3(h), 62%; with EGFR(T790M, L858R)(h), 85%.
